Target: CD19 (UniProt P15391)
Assay: cell-based or functional assay

intracellular IFNγ staining, percent of T cells: 30%
Substance: CD19R:CD28:z(CO) CAR with L235E and N297Q in the IgG4 spacer (CD19R(EQ))

Source: patent US20240156928A1
